For one substance, Luminescence (RLU) results are on record in US20230390369A1.

The target in this test is human PD-L1 on antigen-presenting cells of the Promega J1250 assay (human) (UniProt Q9NZQ7). Briefly: cell-based or functional assay.

In turn, atezolizumab (antibody) showed a Luminescence (RLU) at 0.1 µg/mL of 241000 RLU and a Luminescence (RLU) at 20 µg/mL of 1.47e+06 RLU.
